We go through one molecule from patent publication US20210087231A1 (UNIVERSITY OF MARYLAND BALTIMORE, published 2021).

One experiment concerns the target T1, TRAM-Cer (UniProt Q86XR7 1-235).
T1 construct: Control construct expressed in HeLa cells; not shown: Cerulean fluorescent protein (Cer)
Description: FRET-FLIM in HeLa cells expressing the Cer fusion, Cy3-peptide 1 h. Here is the method:
(§1) To identify potential binding partners of inhibitory peptides a FRET approach coupled with Fluorescence Lifetime Imaging Microscopy (FLIM) was used. HeLa cells were transiently transfected with an expression vector that encodes a TIR domain fused with Cerulean fluorescent protein (Cer). Cells were treated with various concentrations of a Cy3-labeled inhibitory peptide 48 hours after transfection. Cy3 is a suitable FRET acceptor for Cer fluorescence. A direct molecular interaction of a Cy3-labeled peptide with Cer-fused TIR domain should quench Cer fluorescence, leading to a decreased fluorescence lifetime.
(§2) A progressive shift of average fluorescence lifetime towards lower values observed with increasing peptide concentrations indicates the binding between donor and acceptor moieties. […] FRET efficiencies presented in FIG. 13 were calculated from the average lifetimes corresponding to entire images that contained multiple cells as in images shown in FIG. 11, using data obtained in three independent experiments. […]
(§3) The strongest peptide-induced quenching was detected for the TLR9 TIR-Cer-expressing cells treated with Cy3-9R34-ΔN. This peptide quenched the TLR9 TIR-Cer fluorescence dose-dependently with FRET efficiency varying in the range of 9-23% (FIG. 13). […]

The target in a further experiment is T2, MyD88-Cer (UniProt Q99836 155-296).
T2 construct: The vector is 'described previously'; Expressed in HeLa cells; also called MyD88 TIR-Cer; Cer-labeled MyD88 TIR; not shown: Cerulean fluorescent protein (Cer)
T2 sequence (Q99836 155-296): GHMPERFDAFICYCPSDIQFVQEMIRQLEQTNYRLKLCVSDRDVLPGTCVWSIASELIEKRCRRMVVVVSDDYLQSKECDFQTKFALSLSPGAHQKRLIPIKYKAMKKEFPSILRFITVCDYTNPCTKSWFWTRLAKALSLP
Described as above. The protocol:
as §1, §2, §3

No end group written: not given here. Cy3 = Cy3 fluorescent dye label

T1 sequence (Q86XR7 whole entry): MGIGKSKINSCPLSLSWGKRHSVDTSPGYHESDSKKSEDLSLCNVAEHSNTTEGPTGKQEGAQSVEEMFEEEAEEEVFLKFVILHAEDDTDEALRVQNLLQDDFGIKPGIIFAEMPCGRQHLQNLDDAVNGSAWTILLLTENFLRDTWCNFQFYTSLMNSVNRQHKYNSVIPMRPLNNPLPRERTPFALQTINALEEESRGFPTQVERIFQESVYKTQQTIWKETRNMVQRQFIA

B1: Cy3-9R34-ΔN (peptide)
peptide: Cy3-RQIKIWFQNRRMKWKKALRLCLEERD
notes: Cy3-labeled cell-permeating decoy peptide (CPDP); also called 9R34-ΔNa; peptide from Surface 1 (S1) of TLR9
Regarding B1, the binding result was “no binding (tested: 40 µM)” in the experiment with TRAM-Cer; “no binding (tested: 2.5 and 10 µM)” in the experiment with MyD88-Cer.
